Assay [1] concerns the target T1, mFc-cNKG2D (cynomolgus monkey, UniProt P61252 73-216).
T1 construct: extracellular domain; Made in house (Dragonfly Tx); also called recombinant cyno NKG2D extracellular domain (ECD); mFc-tagged cyno NKG2D dimer; not shown: mouse Fc tag
T1 sequence (looked up): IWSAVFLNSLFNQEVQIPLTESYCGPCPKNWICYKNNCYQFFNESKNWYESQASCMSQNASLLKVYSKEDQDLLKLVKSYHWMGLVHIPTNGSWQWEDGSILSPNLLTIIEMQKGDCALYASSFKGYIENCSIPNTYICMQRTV
The assay can be described thus: SPR Biacore 37 C; mFc-tagged cyno NKG2D dimer, TriNKET as analyte; 1:1 kinetic fit. In general terms: SPR reads the build-up and loss of mass on a sensor chip optically.

Assay [2] addresses T1, mFc-cNKG2D. The assay can be described thus: SPR Biacore 37 C; mFc-tagged cyno NKG2D dimer, TriNKET as analyte; 1:1 kinetic fit; average of 4.
Assay [3] concerns the target T2, mFc-hNKG2D (human, UniProt P26718 73-216).
T2 construct: extracellular domain; Made in house (Dragonfly Tx); the order of tag and ECD follows the name mFc-hNKG2D; also called mFc-tagged human NKG2D; not shown: mouse Fc tag
T2 sequence (looked up): T1 sequence (looked up) with N43D, I133T
In words: SPR Biacore 8K 37 C; mFc-hNKG2D captured on anti-mFc chip, TriNKET as analyte; steady state fit; control sample, n=2.

Assay [4] addresses T3, Human CD16a V158 (FcγRIIIa V158) (human, UniProt P08637 17-208, biotinylated (site not stated)).
T3 construct: V158 is the allele name in mature numbering; also called hCD16aV; hCD16a V158
The assay can be described thus: SPR; biotinylated CD16a V158 captured on SA chip, TriNKET as analyte; 1:1 kinetic fit; after 4 wks 40 C in HST pH 6.0, n=3.

Assay [5] addresses T4, Human CLEC12A-His (human, UniProt Q5QGZ9 65-265).
T4 construct: Recombinant soluble protein made in house (Dragonfly Tx); The hCLEC12A spot of the HuProt array is written under this molecule as well; also called hCLEC12A-His; hCLEC12A; not shown: His tag
T4 sequence: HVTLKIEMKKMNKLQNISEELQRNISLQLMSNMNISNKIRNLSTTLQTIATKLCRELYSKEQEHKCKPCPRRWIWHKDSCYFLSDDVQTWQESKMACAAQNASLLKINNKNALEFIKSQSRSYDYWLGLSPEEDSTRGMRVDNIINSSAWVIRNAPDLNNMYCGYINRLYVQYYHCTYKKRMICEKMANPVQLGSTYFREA
The assay can be described thus: SPR Biacore 8K 37 C; TriNKET captured on anti-hFc chip, hCLEC12A-His as analyte; 1:1 fit; after 4 wks 40 C in phosphate/citrate/NaCl pH 7.8, n=2.

Assay [6] addresses T5, mFc-hNKG2D (recombinant mFc-tagged human NKG2D dimer) (human, UniProt P26718 73-216).
T5 construct: extracellular domain; Made in house; not shown: mouse Fc tag
T5 sequence (looked up): T1 sequence (looked up) with N43D, I133T
In words: SPR; control sample.

Assay [7] has as its target T6, Human CD16a V158 (FcγRIIIa V158) (human, UniProt P08637 17-208, biotinylated).
T6 construct: Bought recombinant receptor; also called hCD16aV; hFcγRIIIa V158
In words: SPR; control sample.

The target of assay [8] is T7, De-sialylated human CLEC12A (human, UniProt Q5QGZ9 65-265, treated with neuraminidase (terminal sialic acids removed)).
T7 construct: Same recombinant antigen as m2 after neuraminidase; also called De-sialylated CLEC12A
T7 sequence: T4 sequence
In words: SPR, two-state fit (kd1).

In assay [9] the target is T8, De-glycosylated human CLEC12A (human, UniProt Q5QGZ9 65-265, treated with PNGaseF (N-linked glycans removed)).
T8 construct: Same recombinant antigen as m2 after PNGaseF; also called De-glycosylated CLEC12A
T8 sequence: T4 sequence
The assay can be described thus: SPR, two-state fit (kd1).

Assay [10] deals with T9, Human CLEC12A-His (recombinant, K244 WT) (human, UniProt Q5QGZ9 65-265).
T9 construct: Made in house (Dragonfly Tx); also called hCLEC12A; hCLEC12A-His; not shown: His tag
T9 sequence: T4 sequence
The assay can be described thus: SPR, two-state fit; control sample.

Assay [11] has as its target T9, Human CLEC12A-His (recombinant, K244 WT). The assay can be described thus: SPR, two-state fit (ka1); control sample.
Assay [12] shares this target. In words: SPR, two-state fit (kd1); control sample.
Assay [13] shares this target. In words: SPR, two-state fit; control (fully purified protein study).
The target is the same in assay [14]. The assay can be described thus: SPR, two-state fit; fully purified protein after low pH hold.
Assay [15] deals with T10, Human CD16a V158 (human, UniProt P08637 17-208, biotinylated).
T10 construct: Bought recombinant receptor; also called hCD16a (V158); hFcγRIIIa V158
T10 sequence (P08637 17-208 F176V limits assumed): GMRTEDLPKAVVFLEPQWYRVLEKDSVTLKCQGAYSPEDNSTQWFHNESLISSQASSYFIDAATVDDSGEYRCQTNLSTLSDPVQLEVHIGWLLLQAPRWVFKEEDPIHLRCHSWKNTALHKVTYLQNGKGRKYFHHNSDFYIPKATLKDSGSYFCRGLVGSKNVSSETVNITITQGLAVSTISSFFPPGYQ
The assay can be described thus: SPR, hCD16a V158 captured, kinetic fit; average for AB0192.

Assay [16] has as its target T11, recombinant human CLEC12A-His (human, UniProt Q5QGZ9 65-265).
T11 construct: also called hCLEC12A-His; hCLEC12A
T11 sequence: T4 sequence
In words: SPR 37C, average.

Assay [17] addresses T12, recombinant cynomolgus CD16 (cynomolgus monkey, UniProt Q8SPW2 17-208, biotinylated).
T12 construct: also called cFcγRIII; cyno CD16
In words: SPR 25C, steady state, average.

What is called koff is the first-order rate constant of dissociation. Broadly, the kon is a measure of how fast the partners come together. In general, Kd refers to the free concentration of one partner at which half of the binding sites on the other are occupied at equilibrium, for simple one-to-one binding.

Positions count from the first letter of the chain named. In names and notes the source's numbering stands. Several values for one entry are separate records, joined by “and”; a condition that tells them apart may be missing. Equal entries are not always repeated.

T3 sequence (P08637 17-208 F176V limits assumed): as above
T6 sequence (P08637 17-208 F176V limits assumed): as above
T12 sequence (Q8SPW2 17-208 limits assumed): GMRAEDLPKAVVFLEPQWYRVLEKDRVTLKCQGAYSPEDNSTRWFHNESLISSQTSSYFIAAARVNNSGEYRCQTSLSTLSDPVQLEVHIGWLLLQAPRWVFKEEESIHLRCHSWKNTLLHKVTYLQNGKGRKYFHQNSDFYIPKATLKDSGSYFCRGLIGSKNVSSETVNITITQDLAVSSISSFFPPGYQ

B1: F3'-1602 TriNKET (bispecific antibody, human IgG1, kappa)
chain: QLQLQESGPGLVKPSETLSLTCTVSGFSLTNYGLHWIRQPPGKCLEWIGVIWSGGKTDYNPSLKSRVTISKDTSKNQFSLKLSSVQAADTAVYYCAKYDYDDSLDYWGQGTLVTVSSGGGGSGGGGSGGGGSGGGGSDIQMTQSPSSLSASVGDRVTITCHASQNINFWLSWYQQKPGKAPKLLIYEASNLHTGVPSRFSGSGSGTRFTLTISSLQPEDIATYYCQQSHSYPLTFGCGTKLEIKGSDKTHTCPPCPAPELLGGPSVFLFPPKPKDTLMISRTPEVTCVVVDVSHEDPEVKFNWYVDGVEVHNAKTKPREEQYNSTYRVVSVLTVLHQDWLNGKEYKCKVSNKALPAPIEKTISKAKGQPREPRVYTLPPCRDELTKNQVSLTCLVKGFYPSDIAVEWESNGQPENNYKTTPPVLVSDGSFTLYSKLTVDKSRWQQGNVFSCSVMHEALHNHYTQKSLSLSPG
heavy: EVQLVESGGGLVKPGGSLRLSCAASGFTFSSYSMNWVRQAPGKGLEWVSSISSSSSYIYYADSVKGRFTISRDNAKNSLYLQMNSLRAEDTAVYYCARGAPIGAAAGWFDPWGQGTLVTVSSASTKGPSVFPLAPSSKSTSGGTAALGCLVKDYFPEPVTVSWNSGALTSGVHTFPAVLQSSGLYSLSSVVTVPSSSLGTQTYICNVNHKPSNTKVDKKVEPKSCDKTHTCPPCPAPELLGGPSVFLFPPKPKDTLMISRTPEVTCVVVDVSHEDPEVKFNWYVDGVEVHNAKTKPREEQYNSTYRVVSVLTVLHQDWLNGKEYKCKVSNKALPAPIEKTISKAKGQPREPQVCTLPPSRDELTENQVSLTCLVKGFYPSDIAVEWESNGQPENNYKTTPPVLDSDGSFFLYSWLTVDKSRWQQGNVFSCSVMHEALHNHYTQKSLSLSPG
light: DIQMTQSPSSVSASVGDRVTITCRASQGISSWLAWYQQKPGKAPKLLIYAASSLQSGVPSRFSGSGSGTDFTLTISSLQPEDFATYYCQQGVSFPRTFGGGTKVEIKRTVAAPSVFIFPPSDEQLKSGTASVVCLLNNFYPREAKVQWKVDNALQSGNSQESVTEQDSKDSTYSLSSTLTLSKADYEKHKVYACEVTHQGLSSPVTKSFNRGEC
notes: Trispecific F3' format: CLEC12A scFv-Fc paired with NKG2D Fab-Fc; Stressed and control samples of the stability studies are the same molecule; also called AB0237
For B1, the koff in [1] is 0.147 s⁻¹ and 0.136 s⁻¹ and 0.145 s⁻¹ and 0.135 s⁻¹; in assay [2], 0.141 s⁻¹; in assay [4], 0.0165 s⁻¹; in assay [5], 0.000948 s⁻¹. In addition, the kon in assay [1] is 177000 M⁻¹ s⁻¹ and 164000 M⁻¹ s⁻¹ and 156000 M⁻¹ s⁻¹ and 176000 M⁻¹ s⁻¹; in assay [2] it was 168000 M⁻¹ s⁻¹; in [4], 82400 M⁻¹ s⁻¹; in assay [5], 829000 M⁻¹ s⁻¹. Besides, the Kd is 791 nM in [3], 201 nM in assay [4] and 1.14 nM in [5].

B2: AB0089 TriNKET (bispecific antibody, human IgG1, kappa)
chain: B1 chain with S53V, K56A, K71V, Y98G, D101G, S103T, R207D, I220F
heavy: B1 heavy
light: B1 light
notes: F3' format heterodimer of three chains; human IgG1 Fc with EW-RVT and Y349C/S354C mutations; also called AB0089 Lot AB0089-002; CLEC12A TriNKET AB0089
Regarding B2, the Kd in [6] was found to be 881 nM; in assay [7] it was 333 nM; in assay [10], 0.9 nM; in assay [13] it was 0.51 nM; in assay [14] it was 0.53 nM. Further, the koff amounted to 0.143 s⁻¹ in assay [6]; 0.0277 s⁻¹ in assay [7]; 0.0329 s⁻¹ in assay [8]; 0.00633 s⁻¹ in assay [9]; 0.0476 s⁻¹ in assay [12]. For the same molecule, the kon in [6] turned out to be 162000 M⁻¹ s⁻¹; in assay [7] it was 83100 M⁻¹ s⁻¹; in assay [11], 8.87e+06 M⁻¹ s⁻¹.

B3: AB0192 TriNKET (other)
chain: EVQLVESGGGVVQPGGSLRLSCAASGFTFNAFGMHWVRQAPGKCLEWVAFISSGSTSIYYANTVKGRFTISRDNSKNTLYLQMNSLRAEDTAVYYCARDGYPTGGAMDYWGQGTSVTVSSGGGGSGGGGSGGGGSGGGGSDIQMTQSPSSLSASVGDRVTITCKASQDIYNYLSWFQQKPGKAPKPLIYRANILVSGVPSRFSGSGSGQDYTFTISSLQPEDIATYYCLQFDAFPFTFGCGTKLEIKGSDKTHTCPPCPAPELLGGPSVFLFPPKPKDTLMISRTPEVTCVVVDVSHEDPEVKFNWYVDGVEVHNAKTKPREEQYNSTYRVVSVLTVLHQDWLNGKEYKCKVSNKALPAPIEKTISKAKGQPREPRVYTLPPCRDELTKNQVSLTCLVKGFYPSDIAVEWESNGQPENNYKTTPPVLVSDGSFTLYSKLTVDKSRWQQGNVFSCSVMHEALHNHYTQKSLSLSPG
heavy: B1 heavy
light: B1 light
notes: the condition stands under assay; also called AB0192 Lot AB0192-005
Consider B3, for which, in [15], binding was put at a Kd of 178 nM, the koff was 0.0199 s⁻¹ and the association rate constant (kon) turned out to be 112000 M⁻¹ s⁻¹.

B4: F3'-1602 TriNKET (other)
chain: B1 chain
heavy: B1 heavy
light: B1 light
notes: CLEC12A scFv-Fc, NKG2D A49MI Fab-Fc, human IgG1 Fc; also called AB0237
Turning to B4, in assay [16], the Kd turned out to be 1.2 nM, the koff was 0.000933 s⁻¹ and the kon is 779000 M⁻¹ s⁻¹. The Kd in assay [17] came to 306 nM.
